Consider 5 molecules from patent publication US20210395357A1 (IPHASE PHARMA SERVICE, published 2021).

Assay [1] concerns the target T1, rhIL-6-His (recombinant human IL-6, Val30 to Met212, C-terminal 6 His) (human, UniProt P05231 30-212). Briefly: ELISA, rhIL-6-His coated at 1 µg/ml, anti-human IgG-HRP. The protocol:
The rhIL-6-His antigen was diluted with PBS (pH=8.6) to 1 μg/ml, added to a microtiter plate at 100 μl/well, coated overnight at 4° C., and blocked at 37° C. for 2 hour by adding 300 μl/well of 3% BSA after washing the plate 4 times with PBST. […] The plate was washed for 4 times with PBST, added with HRP (horseradish peroxidase) labeled goat anti-human IgG antibody (ProteinTech, SA00001-1), and incubated at 37° C. for 1 hour. The plate was washed for 4 times with PBST, added with 100 μl/well of TMB color-developing solution (Zuman Bio, ZD311), and incubated at 37° C. for 15 minutes; after color development, 50 μl/well of stop solution (1M sulfuric acid) was added, and the absorbance value at 450 nm wavelength was measured on the microplate reader (BioTek, ELx808).
(In general: ELISA stands for enzyme-linked immunosorbent assay.)

Assay [2] concerns the target T1, rhIL-6-His (recombinant human IL-6, …). The experiment in a line: cell-based or functional assay.
Assay [3] has the same target. The experiment in a line: competition ELISA: antibody pre-incubated with rhIL-6-His, binding to coated rhIL-6R detected with anti-His-HRP. The protocol:
The rhIL-6R (Sino Biological, 10398-H02H) antigen was diluted with PBS (pH=8.6) to 1.5 μg/ml, added to a microtiter plate A at 100 μl/well, coated overnight at 4° C., and blocked at 37° C. for 2 hour by adding 300 μl/well of 3% BSA after washing the plate for 4 times with PBST. […] The plate A was washed once with PBST, added with the mixture in plate B, and incubated at 37° C. for 1 hour. The plate A was washed for 4 times with PBST, added with 100 μl/well of HRP (horseradish peroxidase) labeled anti-His antibody (ProteinTech, HRP-66005), and incubated at 37° C. for 1 hour. The plate was washed for 4 times with PBST, added with 100 μl/well of TMB color-developing solution (Zuman Bio, ZD311), and incubated at 37° C. for 15 minutes for color development; 50 μl/well of stop solution (1M sulfuric acid) was added, and the absorbance value at 450 nm wavelength was measured on the microplate reader (BioTek, ELx808).

For assay [4] the target is unchanged. The experiment in a line: BLI, ForteBio Blitz. On the technique in general: Biolayer interferometry detects binding as a change in optical thickness at a sensor tip.

T1 sequence (P05231 other isoform, or with tags, fused parts or gaps limits assumed): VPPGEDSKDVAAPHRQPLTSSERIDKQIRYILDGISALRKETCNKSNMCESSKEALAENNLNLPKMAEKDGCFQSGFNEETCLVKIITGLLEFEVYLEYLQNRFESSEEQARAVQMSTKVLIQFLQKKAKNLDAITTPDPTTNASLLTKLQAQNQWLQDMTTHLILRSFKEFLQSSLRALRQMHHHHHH

B1: HZ-0408d (antibody, human IgG1, kappa, V domains shown)
VH: QVTLKESGPVLVKPTETLTLTCTVSGFSLSTSGMGVGWIRQPPGKALEWLAHIWWDDDKRYNSALKSRLTISKDTSKSQVVLTMTNMDPVDTATYYCARIGGLYVDYLMDYWGQGTLVTVSS
VL: DIQMTQSPSSLSASVGDRVTITCRASQSISDYLHWYQQKPGKAPKLLIYYASQSISGVPSRFSGSGSGTDFTLTISSLQPEDFATYYCQNGHSFPWTFGQGTKVEIKR
notes: Humanized from murine 140-4; IgG1 type antibody from 293F cells; also called L3/H3
Usually EC50 stands for the concentration that produces a half-maximal response. Usually IC50 stands for the concentration that gives 50% inhibition. As a reminder, the kon is the rate constant with which the complex forms. In the case of B1, the half-maximal effective concentration (EC50) in assay [1] was found to be 0.39 µg/mL. Also, in assay [2], the “concentration of SAA in supernatant of rhIL-6 stimulated HepG2 cells at 100 µg/mL antibody” value (shortened to “concentration of SAA”) came to 85 ng/mL and the “concentration that inhibits IL-6-stimulated phosphorylation of p-Stat3 (Tyr705) in DLD-1 cells, Western blot” value turned out to be 32 µg/mL. Moreover, in assay [3], the IC50 was 3.04 µg/mL. In assay [4], the kon is 93200 M⁻¹ s⁻¹.

B2: HZ-0408c (antibody, human IgG1, kappa, V domains shown)
VH: QVTLKESGPVLVKPTETLTLTCTVSGFSLSTSGMGVGWIRQPPGKALEWLAHIWWDDDKRYNSALKSRLTISKDTSKSQVVLTMTNMDPVDTATYYCARIGGLYVDYLMDYWGQGTLVTVSS
VL: EIVLTQSPATLSLSPGERATLSCRASQSISDYLHWYQQKPGQAPRLLIYYASQSISGIPARFSGSGSGTDFTLTISSLEPEDFAVYYCQNGHSFPWTFGQGTKVEIKR
notes: Humanized from murine 140-4; IgG1 type antibody from 293F cells; also called L2/H3
B2: the EC50 in assay [1] was determined as 0.18 µg/mL. Further, in assay [2], the “concentration of SAA” value is 12.5 ng/mL and the “concentration that inhibits IL-6-stimulated phosphorylation of p-Stat3 (Tyr705) in DLD-1 cells, Western blot” value came to 8 µg/mL. Moreover, the 50% inhibitory concentration (IC50) in assay [3] was found to be 1.29 µg/mL. Moreover, the kon in assay [4] turned out to be 74300 M⁻¹ s⁻¹.

B3: HZ-0408a (antibody, human IgG1, kappa, V domains shown)
VH: QVTLKESGPALVKPTQTLTLTCTFSGFSLSTSGMGVGWIRQPPGKALEWLAHIWWDDDKRYNSALKSRLTISKDTSKNQVVLTMTNMDPVDTATYYCARIGGLYVDYLMDYWGQGTLVTVSS
VL: EIVLTQSPDFQSVTPKEKVTITCRASQSISDYLHWYQQKPDQSPKLLIKYASQSISGVPSRFSGSGSGTDFTLTINSLEAEDAATYYCQNGHSFPWTFGQGTKVEIKR
notes: Humanized from murine 140-4; expressed in 293F cells and captured on Protein A as an IgG1 type antibody; also called L1/H2
Turning to B3, the EC50 in assay [1] came out at 0.16 µg/mL. In assay [2], the “concentration of SAA” value was found to be 30.5 ng/mL and the “concentration that inhibits IL-6-stimulated phosphorylation of p-Stat3 (Tyr705) in DLD-1 cells, Western blot” value stood at 2 µg/mL. Besides, in assay [3], the IC50 is 0.72 µg/mL. Also, the kon in assay [4] is 128000 M⁻¹ s⁻¹.

B4: HZ-0408b (antibody, human IgG1, kappa, V domains shown)
VH: QVTLKESGPVLVKPTETLTLTCTVSGFSLSTSGMGVGWIRQPPGKALEWLAHIWWDDDKRYNSALKSRLTISKDTSKSQVVLTMTNMDPVDTATYYCARIGGLYVDYLMDYWGQGTLVTVSS
VL: EIVLTQSPDFQSVTPKEKVTITCRASQSISDYLHWYQQKPDQSPKLLIKYASQSISGVPSRFSGSGSGTDFTLTINSLEAEDAATYYCQNGHSFPWTFGQGTKVEIKR
notes: Humanized from murine 140-4; IgG1 type antibody from 293F cells; also called L1/H3
Take B4: the EC50 in assay [1] turned out to be 0.09 µg/mL. Besides, in assay [2], the “concentration of SAA” value was -2.5 ng/mL and the “concentration that inhibits IL-6-stimulated phosphorylation of p-Stat3 (Tyr705) in DLD-1 cells, Western blot” value is 2 µg/mL. In addition, the IC50 in assay [3] stood at 0.53 µg/mL. For the same molecule, the on-rate constant (kon) in assay [4] turned out to be 233000 M⁻¹ s⁻¹.

B5: Siltuximab (antibody, V domains shown)
VH: EVQLVESGGKLLKPGGSLKLSCAASGFTFSSFAMSWFRQSPEKRLEWVAEISSGGSYTYYPDTVTGRFTISRDNAKNTLYLEMSSLRSEDTAMYYCARGLWGYYALDYWGQGTSVTVSS
VL: QIVLIQSPAIMSASPGEKVTMTCSASSSVSYMYWYQQKPGSSPRLLIYDTSNLASGVPVRFSGSGSGTSYSLTISRMEAEDAATYYCQQWSGYPYTFGGGTKLEIK
With B5, the concentration for a half-maximal effect (EC50) in assay [1] is 67.3 µg/mL. In addition, in assay [2], the “concentration of SAA” value was 148 ng/mL and the “concentration that inhibits IL-6-stimulated phosphorylation of p-Stat3 (Tyr705) in DLD-1 cells, Western blot” value stood at 64 µg/mL. The IC50 in assay [3] was found to be 12.5 µg/mL. Moreover, in assay [4], the association rate constant (kon) was found to be 28900 M⁻¹ s⁻¹.
